According to publication PMC7190724, “Improved GPCR ligands from nanobody tethering” (Nature Communications, 2020):
Values belong to the binder of their own block, whether it stands above or below them.

Key:
rat PTHR1 = target: T1, rat PTHR1 (Rattus norvegicus, UniProt P25961); assay: flow cytometry on cells; HEK293 cell lines stably transfected with PTHRs, in suspension, incubated on ice with 100 nM VHH sortagged with Alexafluor647, pelleted, washed and analysed; details: one partner purified
T1 construct: parathyroid hormone receptor-1, rat; also called rPTHR1; source: HEK293, stably transfected (GR35), on cells

PTHR1_(6E) = target: T2, PTHR1_(6E) (Homo sapiens PTHR1 with 14-residue …, UniProt Q03431, chimera); assay: flow cytometry on cells; dose response of staining with VHH-Alexafluor647 (median fluorescent intensity); cells in PBS, 1 h on ice; curves without plateau constrained to the plateau seen with other VHHs; details: one partner purified
T2 construct: PTHR1 from its start to the replaced 14-residue fragment of exon 2; replaces 14 residues of exon 2; PTHR1 from the end of the replaced fragment of exon 2 to its end; Made with the Q5 site-directed mutagenesis kit; whole receptor on cells; source: HEK293, stably transfected, on cells
T2 sequence (Q03431 whole entry, looked up, change not shown, the tested form may be a part): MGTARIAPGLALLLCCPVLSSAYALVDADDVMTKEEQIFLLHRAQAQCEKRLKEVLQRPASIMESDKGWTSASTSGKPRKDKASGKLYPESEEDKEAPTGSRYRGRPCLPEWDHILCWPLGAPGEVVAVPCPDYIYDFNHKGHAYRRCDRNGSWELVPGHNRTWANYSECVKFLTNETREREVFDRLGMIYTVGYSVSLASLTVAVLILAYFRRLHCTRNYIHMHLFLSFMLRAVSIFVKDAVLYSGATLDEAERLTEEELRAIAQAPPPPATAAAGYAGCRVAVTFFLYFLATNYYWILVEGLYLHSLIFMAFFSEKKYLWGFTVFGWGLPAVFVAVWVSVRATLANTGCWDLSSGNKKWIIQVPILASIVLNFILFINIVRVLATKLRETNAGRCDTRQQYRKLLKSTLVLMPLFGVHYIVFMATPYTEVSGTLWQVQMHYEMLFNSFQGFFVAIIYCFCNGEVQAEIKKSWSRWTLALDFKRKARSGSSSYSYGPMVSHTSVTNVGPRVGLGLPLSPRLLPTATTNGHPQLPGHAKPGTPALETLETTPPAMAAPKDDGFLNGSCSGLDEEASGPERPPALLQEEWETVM

T1 sequence (P25961 27-591): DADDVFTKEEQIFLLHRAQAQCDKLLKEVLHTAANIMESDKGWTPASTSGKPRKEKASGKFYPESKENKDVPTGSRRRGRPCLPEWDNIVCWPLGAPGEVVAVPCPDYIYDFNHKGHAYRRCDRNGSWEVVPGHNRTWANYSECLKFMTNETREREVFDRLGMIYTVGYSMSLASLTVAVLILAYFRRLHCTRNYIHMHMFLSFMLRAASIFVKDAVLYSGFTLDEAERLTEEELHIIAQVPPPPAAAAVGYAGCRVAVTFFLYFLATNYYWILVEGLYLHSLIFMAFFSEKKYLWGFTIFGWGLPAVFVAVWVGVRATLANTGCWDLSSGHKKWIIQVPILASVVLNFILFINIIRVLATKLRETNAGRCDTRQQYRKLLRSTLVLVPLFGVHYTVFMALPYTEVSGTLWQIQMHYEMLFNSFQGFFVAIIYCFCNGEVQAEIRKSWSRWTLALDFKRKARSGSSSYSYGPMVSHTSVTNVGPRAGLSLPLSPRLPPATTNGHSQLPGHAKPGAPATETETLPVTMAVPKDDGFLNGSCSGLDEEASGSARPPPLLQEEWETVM

binding result (rat PTHR1): binds
B1: VHH_(PTHR) (VHH)
VHH: EVQLVESGGGLVQAGGSLRLSCAASGNIFANNIMGWYRQPPGKEREFVAHVSHDGDSMYAVSVKGRFAISRKDATNLYLQMNSLKPEDTAIYFCRLLNIPTQGRMEGFWGQGTQVTVSS
notes: VHH 22A3; sortase motif of the expressed construct PelB-VHH-LPETGG-His6; on sortagging what follows LPET is replaced by the GGG of the label; Expressed as PelB-VHH-LPETGG-His6; also called 22A3; VHH_(PTHR)-tetramethylrhodamine; source: E. coli WK6 (pHEN6 vector), osmotic shock, purified (Ni-NTA), then sortagged; not shown: His6, C-terminal, cleaved

EC50 (PTHR1_(6E)): < 10 nM
B2: VHH6E (VHH)
VHH: QVQLQESGGGLVQPGGSLRLSCAASGFVFENSAMAWYRQAPGKERELIAVIGTTFIKLAESVKGRFTISRDNAKSTVYLQMNNLKPEDTAVYYCSKSGAYWGQGTQVTVSS
notes: VHH05; sortase motif of the expressed construct PelB-VHH-LPETGG-His6; on sortagging what follows LPET is replaced by the GGG of the label; Recognises a 14-mer peptide of UBC6e; also called VHH05; source: E. coli WK6 (pHEN6 vector), osmotic shock, purified (Ni-NTA), then sortagged; not shown: His6, C-terminal, cleaved
